Where two headings read alike, the source gives them in different places. Marks after values point to notes of the source that are not given here.
B1: Bradavidin: full length wild-type (138 amino acid residues, SEQ ID NO:1) avidin-like biotin-binding protein from Bradyrhizobium japonicum (protein, listed as Bradyrhizobium japonicum)
chain: QSVNWTWTNQYGSTLAITSFNSNTGAITGTYTNNAANSCDEGKPQGVTGWLAYGNTGTAISFSVNFLGCGSTTVWTGQLNNATGFQGLWYLSLAEAVAWNGISAGADTFTFSSGDKALLTKSGVDLKAGSEKLSNTKK
B2: Avidin: chicken avidin (SEQ ID NO:6), glycosylated biotin-binding protein (protein)
chain: NSARSTPGCPPAAEMVHATSPLLLLLLLSLALVAPGLSARKCSLTGKWTNDLGSNMTIGAVNSRGEFTGTYITAVTATSNEIKESPLHGTQNTINKRTQPTFGFTVNWKFSESTTVFTGQCFIDRNGKEVLKTMWLLRS
B3: Bradavidin-core: C-terminally truncated core form (118 amino acid residues, SEQ ID NO:2) of biotin-binding protein from Bradyrhizobium japonicum, produced in E. coli (protein, listed as Bradyrhizobium japonicum)
chain: QSVNWTWTNQYGSTLAITSFNSNTGAITGTYTNNAANSCDEGKPQGVTGWLAYGNTGTAISFSVNFLGCGSTTVWTGQLNNATGFQGLWYLSLAEAVAWNGISAGADTFTFSSGDKAL

Key:
[1] = SDS-PAGE based thermal stability (heat treatment); assay type: physicochemical
Text: The thermal stability characteristics of the proteins were studied by a SDS-PAGE based method as previously described in detail by (Bayer et al., 1996).
(§1) The apparent molecular mass is indicated and followed by the theoretical mass in brackets. Transition temperature (Tr) indicates the temperature in which half of the protein is tetrameric and half monomeric in the absence (first value) and presence (second value) of biotin. In addition to the measured dissociation rate constant (kdiss), the release percentage of the fluorescent biotin conjugate in one hour in the presence of excess free biotin is indicated. Calculated isoelectrical point (pI) and the number of cysteine residues per monomer are also indicated.

[2] = Fluorescent biotin conjugate dissociation assay; assay type: binding; settings: for Fluorescent biotin kdiss: ArcDia BF560-biotin; for Fluorescent biotin kdiss / Release 1 h of fluorescent biotin conjugate: 50° C.; for Fluorescent biotin conjugate dissociation (in words): fluorescent biotin conjugate as ligand; for Release 1 h of fluorescent biotin conjugate: one hour, presence of excess free biotin
Experimental: (§2) FIG. 2 Biotin dissociation analysis. (A) The [3H]biotin dissociation rate constant was measured at different temperatures. The values for streptavidin are from Klumb et al. (Klumb et al., 1998). The scale of the Y axis is logarithmic. (B) Release of fluorescent biotin conjugate from avidins was studied as a function of time in the presence of excess D-biotin at 50° C.
(§3) Ligand binding properties were studied both by [3H]biotin assay and fluorescent biotin conjugate assay. The dissociation rate constant of [3H]biotin (Amersham) from the bradavidins and avidin was measured at various temperatures as described in detail previously (Klumb et al., 1998). According to the results, (Table I, FIG. 2) the faster dissociation rate measured from bradavidin indicates weaker affinity toward the radiobiotin than those of avidin and streptavidin. The dissociation rate of a fluorescent biotin conjugate (ArcDia BF560™-biotin) was measured as previously described (Hytönen et al., 2004a) at 50° C.
as §1

[3] = [3H]biotin dissociation rate assay; assay type: binding; settings: radio-biotin, different temperatures
Experimental: as §2, §3

[4] = values from Bayer et al., 1996, cited from earlier work

Molecule	Heat treatment SDS-PAGE Tr (transition temperature, half tetrameric and half monomeric) ([1]; absence of biotin)	Heat treatment SDS-PAGE Tr (transition temperature, half tetrameric and half monomeric) ([1]; presence of biotin)	Fluorescent biotin kdiss [2]	Fluorescent biotin conjugate dissociation (in words) [2]	Release 1 h of fluorescent biotin conjugate [2]	[3H]biotin dissociation rate (in words) [3]	Heat treatment SDS-PAGE Tr (transition temperature) ([4]; absence of biotin)	Heat treatment SDS-PAGE Tr (transition temperature) ([4]; presence of biotin)
B1	65^ ° C.	85 °C	1.5e-05 s⁻¹	very slow and small release	4.7%	fastest dissociation rate		
B2			0.00027 s⁻¹	clearly the fastest in dissociation	71.5%	clearly the slowest dissociation	58^a ° C.	100^a ° C.
B3	70^ ° C.	85 °C	1.2e-05 s⁻¹		4.4%			
